Laboratory results: US20230090247A1, “MOLECULES TARGETING RAS PROTEIN” (AELIN THERAPEUTICS, priority 2020, published 2023)
Each block holds one substance with its values, some of them ahead of it. Ends that are not written are not given here.

Columns and labels:
G12V mutant KRAS = molecular target: T1, G12V mutant KRAS (Homo sapiens, UniProt P01116, G12V); assay: In vitro translation assay with streptavidin pull-down, KRAS G12V; type: binding; settings: 10 μM biotinylated pept-in, Western blot
T1 construct: made in house; host or cells: cell-free: PURExpress In Vitro Protein Synthesis Kit (New England Biolabs), linear T7 DNA template
From the text: FIG. 5 illustrates in vitro translation assay showing target selectivity of RAS-targeting molecules (‘pept-ins’) according to certain embodiments of the present invention. In vitro translation assay producing either wild-type or different mutant KRAS in the presence of biotinylated RAS-targeting pept-ins. Streptavidin pull-down was used to capture the biotinylated pept-ins from the translation reaction and pulled-down fraction was probed for KRAS using Western blot. The biotinylated version of pept-in 04-004-N001, i.e. 04-004-N011, which harbours an APR window sequence derived from a wild-type APR, would be predicted to target all RAS proteins independently from their mutation status. […] Using the biotinylated versions of the biologically active pept-ins harbouring an APR window containing the G12V mutant site (04-006-N007, 04-015-N026 and 04-033-N003), however, pull-down was only observed for the G12V mutant KRAS and, in the case of 04-015-N026, for G12C mutant KRAS.
In vitro translation assays were performed using the PURExpress® In Vitro Protein Synthesis Kit (New England Biolabs) according to the manufacturer's instructions. Briefly, linear DNA fragments containing T7 promotor and terminator sequences flanking the KRAS coding sequence were generated using PCR and purified using the MinElute PCR Purification Kit (Qiagen). 250 ng of linear DNA was subsequently used for the in vitro translation reaction, which was performed for 2 hours at 37° C. with shaking (1000 rpm). Indicated biotinylated pept-ins were mixed in the translation reactions from a 5 mM stock solution in 6M Urea to a final concentration of 10 μM. Upon completion of the translation reaction, biotinylated pept-ins were captured from the reaction mix using Streptavidin coated beads (Pierce) during 90 min at room temperature. Beads were next washed with TBS containing 0.1% Tween 20 and bound proteins were finally boiled off in 1×SDS loading dye (Bio-Rad) in TBS buffer. Proteins were resolved using Any kD 15-well Mini-PROTEAN gels (Bio-Rad) during SDS-PAGE and probed for KRAS after Western blotting using a mouse monoclonal KRAS-specific antibody (SC-30, Santa Cruz Biotechnology), which was detected with an HRP-coupled anti-mouse secondary antibody using chemiluminescence on a Bio-Rad Chemidoc MP imaging instrument.
To mimic this in vitro, we devised an in vitro translation setup producing either wild-type or mutant (G12V, G12C, G12D or G13D) KRAS in the presence of biotinylated RAS-targeting pept-ins. This allowed us to perform a streptavidin pull-down to capture the biotinylated pept-ins from the translation reaction and perform SDS-PAGE and Western blotting to probe the pulled-down fraction for the presence of KRAS. […]

G12C mutant KRAS = molecular target: T2, G12C mutant KRAS (Homo sapiens, UniProt P01116, G12C); assay: In vitro translation assay with streptavidin pull-down, KRAS G12C; type: binding; settings: 10 μM biotinylated pept-in, Western blot
T2 construct: made in house; host or cells: cell-free: PURExpress In Vitro Protein Synthesis Kit (New England Biolabs), linear T7 DNA template
From the text: (§1) FIG. 5 illustrates in vitro translation assay showing target selectivity of RAS-targeting molecules (‘pept-ins’) according to certain embodiments of the present invention. In vitro translation assay producing either wild-type or different mutant KRAS in the presence of biotinylated RAS-targeting pept-ins. Streptavidin pull-down was used to capture the biotinylated pept-ins from the translation reaction and pulled-down fraction was probed for KRAS using Western blot. The biotinylated version of pept-in 04-004-N001, i.e. 04-004-N011, which harbours an APR window sequence derived from a wild-type APR, would be predicted to target all RAS proteins independently from their mutation status. […]
(§2) In vitro translation assays were performed using the PURExpress® In Vitro Protein Synthesis Kit (New England Biolabs) according to the manufacturer's instructions. […] Proteins were resolved using Any kD 15-well Mini-PROTEAN gels (Bio-Rad) during SDS-PAGE and probed for KRAS after Western blotting using a mouse monoclonal KRAS-specific antibody (SC-30, Santa Cruz Biotechnology), which was detected with an HRP-coupled anti-mouse secondary antibody using chemiluminescence on a Bio-Rad Chemidoc MP imaging instrument. […]

KRAS G12V = KRAS G12V (human, UniProt P01116-2 1-188, limits assumed); assay: cell-based or functional assay
[1] = test system: HeLa cells overexpressing mCherry-tagged KRAS G12V; assay: Cellular fluorescent imaging in HeLa cells overexpressing mCherry-tagged KRAS G12V; type: cell-based, human; settings: 75 min after treatment with the FITC-labeled pept-in
Protocol: FIG. 7 illustrates cellular co-localization between mCherry-labeled KRAS and FITC-labeled RAS-targeting molecules (‘pept-ins’) according to certain embodiments of the present invention.
Fluorescent cellular imaging was performed using HeLa cells that were transduced with lentiviral particles carrying a construct expressing KRAS G12V labeled N-terminally with mCherry. Cells were seeded in a black μClear® Cellstar® F-bottom 96-well plates (Greiner) in […] full growth medium. […] Next, cells were fixed, washed and counterstained with the nuclear dye NucBlue™ (containing Hoechst 33342). Images were captured on a Leica confocal microscope.
To complement the co-immunoprecipitation approach, we also used a cellular imaging approach to show target engagement. To this end, we generated a HeLa cell line overexpressing mCherry-tagged KRAS G12V and FITC-labelled versions of the RAS-targeting pept-ins.

wild-type KRAS = molecular target: T3, wild-type KRAS (Homo sapiens, UniProt P01116); assay: Cellular co-immunoprecipitation in KRAS wild-type expressing RASless MEFs; type: cell-based; settings: 25 μM biotinylated pept-in, 16 hours
T3 construct: host or cells: RASless mouse embryonic fibroblasts expressing a KRAS transgene
Protocol: (§3) FIG. 10 illustrates cellular co-immunoprecipitation assays showing target engagement by RAS-targeting molecules (‘pept-ins’) according to certain embodiments of the present invention. Cellular target engagement of biotinylated pept-ins was assessed using co-immunoprecipitation assay. KRAS wild-type or mutant G12V expressing RASless MEFs. […] The biotinylated versions of the G12V-selective pept-ins, however, show preferential binding to the G12V mutant KRAS protein.
(§4) Cellular co-immunoprecipitation assays were performed using either KRAS wild-type or mutant G12V expressing RASless MEFs (see elsewhere) or human NCI-H441 lung adenocarcinoma tumor cells and N-terminally biotinylated pept-ins. Cells were seeded at a density of 300,000 cells in a clear 6-well plate (Cellstar, Greiner). […] Next, cells were lysed with NP-40 lysis buffer (150 mM NaCl, 50 mM Tris HCl pH8, 1% IGEPAL (NP40), 1× Halt phosphatase/protease inhibitors (Thermo), 1 U/μl Universal Nuclease (Pierce)) and biotinylated pept-ins were captured with streptavidin-coated magnetic beads (Pierce) during 1 hours at room temperature. Beads were washed with NP40 lysis buffer at least 3 times, after which bound proteins were boiled off in 1×SDS loading dye (Bio-Rad) in NP40 lysis buffer. […]

KRAS wild-type = molecular target: T4, KRAS wild-type (Homo sapiens, UniProt P01116); assay: In vitro translation assay with streptavidin pull-down, KRAS wild-type; type: binding; settings: 10 μM biotinylated pept-in, Western blot
T4 construct: made in house; host or cells: cell-free: PURExpress In Vitro Protein Synthesis Kit (New England Biolabs), linear T7 DNA template
From the text: as §1, §2

KRAS G12D mutant = molecular target: T5, KRAS G12D mutant (Homo sapiens, UniProt P01116, G12D); assay: In vitro translation assay with streptavidin pull-down, KRAS G12D; type: binding; settings: 10 μM biotinylated pept-in, Western blot
T5 construct: made in house; host or cells: cell-free: PURExpress In Vitro Protein Synthesis Kit (New England Biolabs), linear T7 DNA template
From the text: as §1, §2

mutant G12V KRAS = molecular target: T6, mutant G12V KRAS (Homo sapiens, UniProt P01116, G12V); assay: Cellular co-immunoprecipitation in KRAS G12V expressing RASless MEFs; type: cell-based; settings: 25 μM biotinylated pept-in, 16 hours
T6 construct: host or cells: RASless mouse embryonic fibroblasts expressing a KRAS G12V transgene
Protocol: as §3, §4

KRAS G13D mutant = molecular target: T7, KRAS G13D mutant (Homo sapiens, UniProt P01116, G13D); assay: In vitro translation assay with streptavidin pull-down, KRAS G13D; type: binding; settings: 10 μM biotinylated pept-in, Western blot
T7 construct: made in house; host or cells: cell-free: PURExpress In Vitro Protein Synthesis Kit (New England Biolabs), linear T7 DNA template
From the text: as §1, §2

[2] = test system: SW620 xenograft of human KRAS G12V mutant colorectal cancer; assay: In vivo SW620 xenograft model; set-up: species or system Female NCr nu/nu mice
Protocol: FIG. 12 illustrates that RAS-targeting pept-ins reduce tumor growth in a xenograft model of KRAS G12V mutant cancer. […] Pept-ins were dosed 3 times per week by intratumoral injection at either 20 or 200 μg once the tumors reached 100-150 mm^3. Model response was monitored by a positive control group receiving Irinotecan at 100 mg/kg, once per week for 3 weeks. Group sizes were N=6 for the non-treated group, N=5 for the vehicle groups and N=8 for the pept-in and positive control groups. Graphs show box plots of tumor volumes at day 22 after treatment started.
Female NCr nu/nu mice (8 to 12 weeks) were inoculated with 1×10^6 SW620 tumor cells in 50% Matrigel subcutaneously in the hind flank. The cell Injection Volume was 0.1 mL/mouse. When tumors reached an average size of 100-150 mm^3 a pair match was performed, and treatment started. Group sizes were N=6 for the non-treated group, N=5 for the vehicle groups and N=8 for the pept-in and positive control groups. Tumor growth was monitored by caliper measurement twice per week. Model response was monitored by Irinotecan dosed once per week at 100 mg/kg intraperitoneally for 3 weeks.
To assess whether the RAS-targeting pept-ins are able to attenuate growth of KRAS G12V-driven tumors in vivo, a subcutaneous xenograft model of human KRAS G12V colorectal cancer (SW620) was used. Once the tumors reached 100-150 mm^3 in size, pept-ins were administered directly into the tumor mass by intratumoral injection three times per week during two weeks at two different doses (20 μg and 200 μg).

[3] = test system: RASless MEFs expressing KRAS WT; assay: RASless MEF spheroid efficacy, KRAS WT expressing MEFs; type: cell-based, mouse; settings: spheroids, 5 days of exposure
Protocol: (§5) FIG. 9 illustrates mutant-selective cellular efficacy using the RASless MEF panel. Graph showing mean±SD as well as individual assay IC50s from at least three independent experiments assessing the efficacy of the indicated RAS-target pept-ins on a panel of RASless MEFs, expressing either wild-type (WT), mutant G12V or G12C KRAS, or a V600E mutant BRAF in absence of endogenous K-, H-, and NRAS.
(§6) For the single-dose viability screen on spheroid cultures, 1000 cells were seeded per well in black Ultra-Low Attachment (ULA) round-bottom 96-well plates (Corning) in […] full growth medium. […] Technical duplicates were included for all experimental pept-in conditions 5 days after treatment viability was assessed using the CellTiter Glo 3D reagent (Promega) according to the manufacturer's instructions, with the following adaptation: 80 μL of reagent was added per well. Readout was performed on a Clariostar plate reader (BMG). […]
(§7) RAS mutant-selectivity on cellular efficacy was assessed using the isogenic RASless mouse embryonic fibroblast (MEF) panel. […] The panel assessed included the common clinical KRAS variants expressed as transgene (WT, G12V and G12C) and an additional cell line dependent on the expression of BRAF V600E for proliferation.
(§8) Efficacy of RAS-targeting pept-ins on MEFs growing as spheroids was assessed after 5 days of exposure. […]

[4] = test system: RASless MEFs expressing KRAS G12C; assay: RASless MEF spheroid efficacy, KRAS G12C expressing MEFs; type: cell-based, mouse; settings: spheroids, 5 days of exposure
Protocol: as §5, §6, §7, §8

[5] = test system: RASless MEFs expressing KRAS G12V; assay: RASless MEF spheroid efficacy, KRAS G12V expressing MEFs; type: cell-based, mouse; settings: spheroids, 5 days of exposure, compared to KRAS WT and G12C MEFs
Protocol: as §5, §6, §7, §8

streptavidin pull-down of KRAS G12V (G12V mutant KRAS): notable pull-down
Substance: 04-033-N003: biotinylated version of a biologically active pept-in harbouring an APR window containing the G12V mutant site (KVVVGAVGVGKGSKVVVGAVGVGK; also: biotinylated, site not given here)

streptavidin pull-down of KRAS G12V (G12V mutant KRAS): notable pull-down
Substance: 04-006-N007: biotinylated version of a biologically active pept-in harbouring an APR window containing the G12V mutant site (KVVVGAVKGSKVVVGAVK; also: biotinylated, site not given here)

streptavidin pull-down of KRAS G12V (G12V mutant KRAS): efficient pull-down
streptavidin pull-down of KRAS wild-type (KRAS wild-type): efficient pull-down
binding (pull-down) to KRAS G12D (KRAS G12D mutant): less efficient
binding (pull-down) to KRAS G13D (KRAS G13D mutant): less efficient
streptavidin pull-down of KRAS G12C (G12C mutant KRAS): efficient pull-down
Substance: 04-004-N011: biotinylated version of pept-in 04-004-N001 (KLSVFAIKGSKLSVFAIK; also: biotinylated, site not given here)
co-precipitation of wild-type KRAS (wild-type KRAS): precipitate both wild-type and mutant G12V KRAS well
co-precipitation of mutant G12V KRAS (mutant G12V KRAS): precipitate both wild-type and mutant G12V KRAS well

The next lines start with the substance.

Substance: 04-015-N026: biotinylated version of a biologically active pept-in harbouring an APR window containing the G12V mutant site (KVVVGAVGKGSKVVVGAVGK; also: biotinylated, site not given here)
streptavidin pull-down of KRAS G12V (G12V mutant KRAS): notable pull-down
streptavidin pull-down of KRAS G12C (G12C mutant KRAS): notable pull-down

Substance: SAH-SOS-1A (peptide)
IC50 on viability of adherent NCI-H441 cells after 4 days exposure (KRAS G12V): 15 µM

Substance: 04-015-N032: FITC-labelled version of pept-in 04-015-N001 (KVVVGAVGKGSKVVVGAVGK; not fully specified (C-terminus); also: FITC-labelled, site not given here)
association with mCherry-labelled KRAS (inclusion-like perinuclear structures) [1]: associates with mCherry-labelled KRAS

Substance: Ac-KLSVFAIKGSKLSVFAIK-NH2 [04-004-N001]
average tumor volume at day 22 after treatment started ([2]; 20 μg intratumoral injection three times per week): only significant for the 200 μg dosing group
average tumor volume at day 22 after treatment started ([2]; 200 μg intratumoral injection three times per week): only significant for the 200 μg dosing group
efficacy on MEFs expressing KRAS WT [3]: responded similarly as the BRAF V600E expressing RASless MEFs
efficacy on MEFs expressing KRAS G12C [4]: responded similarly as the BRAF V600E expressing RASless MEFs
efficacy on MEFs expressing KRAS G12V [5]: notable increased efficacy
